The source of these data is PMC9506415.

This assay has as its target human fibronectin (human) (UniProt P02751). The experiment in a line: dual-polarization interferometry (DPI); 100 μg/mL FN immobilised on an amine-functionalised AnaChip, sealing agent, then samples injected; Tris-HCl pH 7.4 with 0.1 M NaCl; layer thickness and mass resolved.

bovine gelatin (G9382, type B) returned a resolved layer mass after adsorption of gelatin (3.68 ng/mm^2 before) of 3.86 ng/mm^2 and a resolved layer thickness after adsorption of gelatin (11.60 nm before) of 12.6 nm.
